# Results reported in paper PMC11245101.
# Where “and” joins values, the source holds several entries; their conditions need not be identical. Equal values may be shown once.
# Tests used:
# Experiment in all cases: AUC
# [1] = biological target: TDP-43 CTD S→E S305C, disulfide cross-linked dimer (human)
# [2] = biological target: TDP-43 CTD S→E S317C, disulfide cross-linked dimer (human)
# [3] = biological target: TDP-43 CTD S→E S273C, disulfide cross-linked dimer (human)
substance,measurement,setting,value
"TDP-43 CTD S→E S305C, disulfide cross-linked dimer (domain or fragment)",Kd dimer-tetramer,[1],58 µM
same,Kd tetramer-octamer,[1],4.7 µM
same,stoichiometry N,[1],4 and 8
"TDP-43 CTD S→E S317C, disulfide cross-linked dimer (domain or fragment)",Kd,[2],46 µM
same,stoichiometry N,[2],4
"TDP-43 CTD S→E S273C, disulfide cross-linked dimer (domain or fragment)",fraction of tetramer,[3],< 1%
